This series can be described thus: soluble on expression in E. coli; label from the status in PepcDB or PDB records.
With “MKEIKFLHIADLHLDSPFIGLSTLPQPLFSAVQESTFQSLERIITIAIKEAVEFVLIAGDIYDSEDQSVRAQARFSKEMKRLEQAGIKAFIIHGNHDFIEKHKEKLQLPGNVHVFSEQVEMAAMETKNGAIVHIYGFSYGERHIRASRVNEYNKQGEADFHIGLLHGSELSSSEDHDVYAPFRIQEITKKGFDYWALGHIHKRQLLAESPSVYYPGNIQGRNRKESGEKGASIVTLSASNTTIDFIATSPIIWEEVIITLPENSEINTFYREITKLLATYQGQSNSFFLHVIVQMANKQKINTTDWLQMLQEETDLTGSTFIWVHKLTIELTNQSDLKNWHEQHLASKEITQAFEKLQDESAFYQTVEALYFESGVSRYLDDLSEEDRQLMLDAALTELGTVLKEVEGDEK”, the “soluble on expression in E. coli” value is recorded as “not soluble”.
With “MKEIYLPLHHGKAPHWLLSRMKKLAKPIVKLIVLEYGEREFLERLSNPIFFQSLSNVLGFDWNSSGVTTVLTGVLKAVINNEEFDIRIAGGKGGNALKTPEEIMNYSEQIGADGEKLVEFSRLAAKADNAALIDGYSLYHHAVIFTPRYFTVIQQGMNETERMARRYHWNVYSSVPELENVHEGIITERRENEVVNMLSDISRDAKRLCVDIVRDGSFRRDYERMISVLRWRKGLRVPKKLDWKVVERAYNLQPERFEELLLIRGFGRETIRALALVAEIIYNTEYDKTDPAKYCFAVGGKDGVPFPVRRDIYDEIIEFMRETVKQAEIGDFEKKKMLERLSRYGCDCQERRD”, the “soluble on expression in E. coli” value is listed as “soluble”.
In the case of “MKERIVGQSGELFCFGQMPVWKVENLPEVLLSGYSSEEGEWVCLNVLQGDVEVRAPDGSAEVWSADGGDCVFAPQQVFSVKPKTDDAEIRLSLYCAAADYFHKKYGMSATHSAVAAARDTVPAGRALDMGCGQGRNALFLGLKGFEVTAVDHNPAALANVAELAEAEGLNVRTLEYDLNAAALQGEFDYIVATVVLMFLMPQRVPDVIADMQAHTAAGGYNLIVSAMDTADFPCPMPFPFKFKEGELKDYYRDWELVEYKEELGSMHAKDENGNPIRFKFVTMLAKKPELEHHHHHH”, the “soluble on expression in E. coli” value was “not soluble”.
For “MKESMSSVDIKYITEELKDMIVGSRVEKIYHEGNEIRFKLHKTGVGRVDLLIEAGKRIHITTYVKENLQPTSFAMLLRKYLSGKFLEDIRQYEFDRVVILSFGEYFLIAELFGRGNIIFVTKDWEIIGALRYEEFKDRAIKPKIKYVFPPSRANPLKVSFEEFKEIILNSQGTEIVRALAKNFSIGGLYSEETLLRAKIDKDRKVDELSEEELRLVYDTLLTVLNDEKKPNIVYNKEGVMVDVVPIDLQWYREYTKRYYESFSEALDEYFGKLTIEKARLEKTKQLEERRKALEISLRRIEEQIKGFEKEAMTNQEKGDALYAHYSIVNEILRVISSALKQYGVEEVKKRIEEGKKAGYPWAKMIIDVTDNKVTLNLDGIKVSLDVEKSLEENAELYYERAKKAKKKLEGAKIAYEETKRKLIELEKEIERESKEINIKKITRKKKKWFE”, the “soluble on expression in E. coli” value is given as “not soluble”.
Take “MKETIMNQKLTKRQAEVHTGRKGTAHRKKVVHTTAEDKKFQFSLKKLGVNNIPGIEEVNMFTHQGTVIHFNNPEVQASLAANTFTMTGHAETKQLTEMLLSIDHKPVLQMV”: the “soluble on expression in E. coli” value is listed as “soluble”.
On to “MKEVMLFPLTSVVLPEGKMNLRIFEPRYKRMVKECSLQNVGFGVCLVGSEGDPKDVGNVSSIGTLVRIVDFETLSDGLLGITVAGEKRFVIKRVRADSDGLRHAEVEWLDNWQTPSQQLDFGYLSQQLAQVYEQFPQLGTLYQHRFYDDPIWVTQRWLELLPLDSHLFESLVGAQDCRPALRFLNQAIEAPSNKEARILEHHHHHH”, for which the “soluble on expression in E. coli” value was “soluble”.
On to “MKEVYRYAYHYAGRPVGEGRLEVERRRGGVRASLQAEFLPPLPPGRQRWQTELDAEGFSLRFQERVEGKEVRVFAVERLEEEGVVLVSQGKESLAYPYLAPYHDPLSLFLALPGLALEPGEVVRFPMPGGRVYVERLPDVEVEGRARRQYRLRPGLSLVQVEEGRLVRVAQQVGRHVFEAVLLEAEGP”, for which the “soluble on expression in E. coli” value is given as “soluble”.
With “MKFDTIINQPVIETERFDLRPLRKSDMGLIEHYARDERVARMTTSIPHPLPPGMAEGFVARAMSEERTEDVWAMDATRDGGPELMGLISLERMDRNQSEVGYWVAPVFWNTGIASMAVEALVNANPLGNATMFASVFQDNPASARVLTHCGFQYLGDAESYSVARDAAVPTWTYSRKL”, the “soluble on expression in E. coli” value is “not soluble”.
In the case of “MKFFIAFACLLAVALANEDANVLRAEQQVNVDGFAYAVELDNSVNVQQKGDLNGEEWVVKGSQSWTSPENVPVSIQYIADANGYQVVSANPPLPTPPPIPEAIQRSLEYIAAHPPSQLEHHHHHH”, the “soluble on expression in E. coli” value is “not soluble”.
Turning to “MKFFSNPKQEAQTHFHLHKDKETMSVSAIFGTGIVTVAASPVLRQFQVPKLGNGGGLGMVIECSSRPQKKSTAHHRKTRPKKTQPWDIKRKPTVYAPLPPLPAEWSPFTLASDDGGAATAAGDLVSGAA”, the “soluble on expression in E. coli” value is reported as “not soluble”.
Then “MKFIRRCMMETRYTVRQAVEMTGVKSYVLRYWEEELELQIHRNELGHRYYTGYDIQLFLNIKELKKRGLQLRAIKNLIPQITASMTGFGESASTLLEGEVIDHAEVKTDRDLKEKISKKDEGKNDKILEFQAILERLITQELKAQNEDEERCRSLDYAIRRQQLARKEAAAAAEKKSGRRRRDK”, with “not soluble”.
Turning to “MKFKNILFDFDDTLVDFYDAEKKAFYNLAQKYNHQPTQQDFEHFKKVNQAHWEAFQQNKLTKDEVLSQRFINYFNDYQIHVNGKEADKCFRAELAMAPVKLFDHTLEVIQQLKLNHSLYIVTNGVTETQLRRIAQTQFNEIFQDVFISEKAGFQKPMTEFFDFVFEHIGENNRNQTLIVGDSLTSDILGGKNANISTCWFNIRQKENHTSIQPDYIINDLSEMIRIVE”, the “soluble on expression in E. coli” value was “not soluble”.
Take “MKFRQKHEDFIVNEILEYELNDYGNYFLYKLQKNGIENLKAISYLSKNFEVPTKEIGYCGLKDRHAITTQYVSIPKEYGKLSLDEDNLKLEYVGTIEKPLKIGRLYGNRFEIIARAVDKDEFLKIADNIRNLSSGAPNYYDDQRFGSVFNGKFIAKEILKGNYEEVVKILLTSYTKSEKKQLKDLKRFIAKNWGNWDECLEYIDKKQIRSKMFRNMVKSLTYENDFKKAFKYVDNRLKELFISAYQSYLWNECLKEFLKEVIPKENRIYVDYSCGTFLFYENIEEELFDKLKEMDFPTIVSDVEYTDPEKRIIKAILKKERIKISDFEKLDFGKLKYTKRPIISIPEDVNTGKFKSDELNSKKYKIDLEFSLKKGSYATIILKRVFNILLEHHHHHH”: the “soluble on expression in E. coli” value is recorded as “soluble”.
Take “MKFTSLLTAGALASTLVSPAIMAADTASASLSDAQKKEIEKVIHDYLINNPEVLLEASQALQQKQQQNMQQQAQAAIQENAEQVFQGKLTTVGNPKGNVTLVEFFDYQCIHCKKMASTIENLVKKDSGLRVIYKEFPIFGKTSDLASRVALAAGMQGKYQAMHNALITIDKRLDEKTVMDAAKSIGLDMQKLKKDMDSQEVTDILDANRQLAEKLHLMGTPAFIIGSTPDGQYKKGSEISFIPGATSEQSLRELIKKAAGN”: the “soluble on expression in E. coli” value is given as “not soluble”.
Turning to “MKFVNFDEYKQLVDYFRNRLNPNYSSPTMLFIISITGMRASEAFGLVWDDIDFNNNTIKCRRTWNYRNKVGGFKKPKTDAGIRDIVIDDESMQLLKDFREQQKTLFESLGIKPIHDFVCYHPYRKIITLSALQNTLDHALKKLNISTPLTVHGLRHTHASVLLYHGVDIMTVSKRLGHASVAITQQTYIHIIKELENKDKDKIIELLMELLEHHHHHH”, the “soluble on expression in E. coli” value is “soluble”.
Then “MKGLYFQQSSTDEEITFVFQEKEDLPVTEDNFVKLQVKACALSQINTKLLAEMKMKKDLFPVGREIAGIVLDVGSKVSFFQPDDEVVGILPLDSEDPGLCEVVRVHEHYLVHKPEKVTWTEAAGSIRDGVRAYTALHYLSHLSPGKSVLIMDGASAFGTIAIQLAHHRGAKVISTACSLEDKQCLERFRPPIARVIDVSNGKVHVAESCLEETGGLGVDIVLDAGVRLYSKDDEPAVKLQLLPHKHDIITLLGVGGHWVTTEENLQLDPPDSHCLFLKGATLAFLNDEVWNLSNVQQGKYLCILKDVMEKLSTGVFRPQLDEPIPLYEAKVSMEAVQKNQGRKKQVVQF”, with “soluble”.
“MKGVHHRPHEAVPTWACGWGVATTEHMAVSRRKHFSSICLHAQGSSRLPVLSTGTAVSELLRTSLCQVVELGPSPYLSLVPTVLLTVQHLGALAWGWRPW”: the “soluble on expression in E. coli” value is “soluble”.

These data come from the DeepSol protein solubility set.
